“Also recorded” adds a separate entry of the source. Where no end group is shown, it is not given here.
Tests used:
δ-opioid receptor = target: T1, δ-opioid receptor (Rattus norvegicus, UniProt P33533); experiment: Competitive flow cytometry assay of free peptides against DSLET-FITC on C6 cells; format: binding; conditions: 100 nM peptide, 3.5 nM DSLET-FITC
T1 construct: delta opioid receptor expressed by the C6 cells; endogenous in cells; host or cells: C6 glioma cells
Experimental: (§1) The derived peptides were synthesized (Pepmic, Suzhou, China). The binding specificity of the peptides was tested in a competitive assay. C6 cells were grown to 70-80% confluence and removed from the culture, centrifuged and re-suspended to 2×10^6/ml in PBS/0.05% FBS.DSLET-FITC (3.5 nM) was mixture with 0, 3.5, 10, 50 or 100 nM of peptide. In parallel, 2 nM DAMGO-FITC was mixture with 0, 2, 10, 50 or 100 nM of peptide. These mixtures (500 μl) were added to the cells for 5 min at 37° C. Then 500 μl PBS was added and the tubes centrifuge for 5 min at 4250 rpm. The cell pellet was re-suspended in PBS and analyzed by flow cytometry.

Sprague-Dawley rats = experiment: Cue-induced cocaine-seeking behavioral test after forced abstinence
μ-opioid receptor = target: T2, μ-opioid receptor (Rattus norvegicus, UniProt P33535); experiment: Competitive flow cytometry assay of free peptides against DAMGO-FITC on C6 cells; format: binding; conditions: 2 nM DAMGO-FITC
T2 construct: 50% expressed the μ-opioid receptor; endogenous in cells; host or cells: C6 glioma cells
Experimental: as §1

[1] = target: T3, δ-opioid receptor (DOR) expressed on C6 cells (Rattus norvegicus, UniProt P33533); experiment: Intracellular cyclic AMP in C6 cells (Direct cAMP kit / cAMP ELISA); format: cell-based; conditions: for reduction of cAMP levels: 100 nM, C6 cells
T3 construct: delta opioid receptor expressed by the C6 cells; endogenous in cells; host or cells: C6 glioma cells
Experimental: To test the pharmacological function of the peptides showing positive competitive binding versus the DSLET analogue and negative competition versus the DMGO analogue were tested for agonistic activity using the Direct cAMP kit (Enzo). The analogue DSLET was used as a positive control.

[2] = target: T4, delta opioid receptor expressed by the C6 cells (Rattus norvegicus, UniProt P33533); experiment: FACS analysis of GNP-peptide binding to C6 cells
T4 construct: delta opioid receptor expressed by the C6 cells; endogenous in cells; host or cells: C6 glioma cells
Experimental: (§2) C6 cells (1×10^6) were cultured in 5 ml glucose-free DMEM medium containing 5% FCS, 0.5% Penicillin and 0.5% Glutamine. Then, excess amounts of GNPs were added and incubated with cells for 30 minutes at 37° C.
Cells were incubated with GNP-peptide for 15 min at 37° C. and then washed with PBS, followed by trypsin treatment. Then, cells were centrifuged twice (5 min in 1000 rpm) to wash out unbound nanoparticles. Cells were analyzed for cell-associated NPs by Flow Cytometry (FACS; Cellquest software; Becton-Dickinson & Co., Franklin Lakes, N.J.).

C6 cells membrane (DOR) = target: T5, C6 cells membrane (DOR) (Rattus norvegicus, UniProt P33533); experiment: Microscope validation of GNP-peptide binding to C6 cells; format: cell-based
T5 construct: delta opioid receptor expressed by the C6 cells; endogenous in cells; host or cells: C6 glioma cells
Experimental: as §2
Fluorescent coated (Rhodamine B, Sigma, Israel) GNP-peptidl were incubated with C6 cells for 30 min at 37° C. The cells were subsequently washed three times in PBS prior to confocal imaging using Leica TCS SP5 with Acousto-Optical Beam Splitter microscope to acquire fluorescent and bright field images.
A Nikon i50 microscope (Tokyo, Japan) equipped with a hyperspectral imaging system (CRI, USA) was used to obtain dark-field images (20× magnification) in order to assess nanoparticle uptake.

T5 sequence (P33533 whole entry): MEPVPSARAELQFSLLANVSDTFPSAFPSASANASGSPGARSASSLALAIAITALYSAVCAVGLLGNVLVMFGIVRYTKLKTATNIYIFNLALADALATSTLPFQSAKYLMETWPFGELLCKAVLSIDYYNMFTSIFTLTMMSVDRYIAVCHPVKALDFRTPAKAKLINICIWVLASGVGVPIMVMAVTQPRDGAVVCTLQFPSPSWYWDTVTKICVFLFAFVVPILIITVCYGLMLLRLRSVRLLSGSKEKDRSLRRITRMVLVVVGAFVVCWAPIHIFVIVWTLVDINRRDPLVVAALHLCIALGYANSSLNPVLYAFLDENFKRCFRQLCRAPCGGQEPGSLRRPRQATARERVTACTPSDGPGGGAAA
T3 sequence (P33533 whole entry): as above
T1 sequence (P33533 whole entry): as above
T2 sequence (P33535 whole entry): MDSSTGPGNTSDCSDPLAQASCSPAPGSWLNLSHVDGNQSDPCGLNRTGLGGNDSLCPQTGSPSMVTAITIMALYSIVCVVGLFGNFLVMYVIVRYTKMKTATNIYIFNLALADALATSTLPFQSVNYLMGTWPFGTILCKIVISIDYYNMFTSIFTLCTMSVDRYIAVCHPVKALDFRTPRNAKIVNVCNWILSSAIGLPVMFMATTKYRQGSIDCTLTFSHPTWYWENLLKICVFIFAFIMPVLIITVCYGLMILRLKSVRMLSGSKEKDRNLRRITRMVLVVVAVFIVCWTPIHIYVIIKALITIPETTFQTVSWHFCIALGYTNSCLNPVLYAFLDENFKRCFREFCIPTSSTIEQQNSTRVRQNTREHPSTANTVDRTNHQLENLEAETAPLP
T4 sequence (P33533 whole entry): as the sequence (P33533 whole entry) above

## NGNDRTDQMPLP [Peptide 1]
δ-opioid receptor
  maximum inhibition of DSLET-FITC binding: 48%
Sprague-Dawley rats; injection into the NAc, two doses
  active lever presses vs CSF group: decreased active lever presses
μ-opioid receptor
  inhibition of DAMGO-FITC binding to the μ-opioid receptor: neither Peptide 1 or 2 inhibited binding
[1]
  reduction of cAMP levels: ~80%

## DPDPE [reference compound]
Sprague-Dawley rats; injected into the NAc once after 30 days of abstinence, observed at days 30 and 60
  active lever presses (seeking behavior) vs CSF group: reduced seeking behavior

## CTAP [reference compound]
Sprague-Dawley rats; intra-NAc injection, 3 μg and 30 ng, 1 day or 30 days of forced abstinence
  cue-induced cocaine-seeking behavior: no behavioral effect

## IIAGEYKQMLTL [Peptide 2]
δ-opioid receptor
  maximum inhibition of DSLET-FITC binding: 45%
μ-opioid receptor
  inhibition of DAMGO-FITC binding to the μ-opioid receptor: neither Peptide 1 or 2 inhibited binding
[1]
  reduction of cAMP levels: ~80%

## peptide 1 conjugated to gold nanoparticles: 20 nm PEG-coated gold nanoparticles with the peptide covalently conjugated to the carboxylic group of SH-PEG-COOH (NGNDRTDQMPLP; also: covalently conjugated to carboxyl of SH-PEG-COOH on 20 nm PEG-coated gold nanoparticles, site not given here)
[2]
  binding to the delta opioid receptor on C6 cells by FACS relative to vehicle: higher affinity and exhibited better binding to the cells relative to vehicle
Sprague-Dawley rats; GNP conjugate, injection into the NAc
  active lever presses vs CSF group: decreased active lever presses
Sprague-Dawley rats; GNP conjugate, intra-nasal, tested two hours later
  active lever presses vs CSF group: Significantly less active lever presses
[1]; GNP conjugated to peptide 1, C6 cells
  cAMP decreased to % from the initiation state: 80.70%
C6 cells membrane (DOR); listed as Gold nanoparticle (GNP) conjugated peptide 1
  binding to the C6 cells membrane (microscope): bind mainly the C6 cells membrane
C6 cells membrane (DOR); listed as Peptide 1 conjugated to GNP
  binding to the C6 cells membrane (microscope): increased binding to the C6 cells membrane

## Oc1ccc2c3c1O[C@H]1c4[nH]c5ccccc5c4C[C@@]4(O)[C@@H](C2)N(CC2CC2)CC[C@]314 [naltrindole, reference compound]
Sprague-Dawley rats; intra-NAc infusion, 1 μg, day 1 of forced abstinence
  cue-induced cocaine-seeking behavior: increased cue-induced cocaine-seeking behavior
C6 cells membrane (DOR)
  binding of GNP conjugated peptide 1 to the cells membrane after blocking the DOR: significant decrease in the binding; also recorded: prevented the binding of the peptide to the cells membrane

Source: patent publication US10421785B2, “Delta receptor agonist peptides and use thereof” (BAR-ILAN UNIVERSITY, priority 2016, dated 2019)
